Patent US7288523B2, “Peptide binding the KLVFF-sequence of amyloid-β” (Neurochem (International) Limited, priority 1995, dated 2007)

Assays:
[1] = literature; cited from earlier work
[2] = Aggregation and fibril formation of Aβ-1-28 peptides (RPLC of supernatant, electron microscopy of pellet); assay type: physicochemical; details: 200 μM, 24 h, 37° C., TBS
Experimental: Aβ-1-28 (FIG. 3A) and AP-1-28^AAVFA (FIG. 3B) were incubated at 200 μM in TBS for 24 h at 37° C. in a shaking water bath. After incubation, the tubes were centrifuged at 20,000 g for 20 min and the content of non-aggregated peptide in the supernatants (FIG. 3A, B) was analyzed using an established C4 RPLC system (12) whereas the aggregated peptides in the pellets were analyzed by electron microscopy after adsorption to formvar-coated grids and negative staining with 2% uranyl acetate in water.

amyloid fibril formation = amyloid fibril formation (Homo sapiens, UniProt P05067); details: literature; cited from earlier work
Aβ-1-40 [3] = molecular target: T1, Aβ-1-40 (Homo sapiens, UniProt P05067); assay: Aβ-1-40 polymerization alone or coincubated with peptide, electron microscopy; assay type: biochemical
T1 construct: Incubation of synthetic Aβ-1-40 at 100 μM for 48 h; host or cells: synthetic peptide (chemical synthesis)
Experimental: Aβ-1-40 was incubated at 100 μM in TBS for 48 h at 37° C. in a shaking water bath, either alone or together with 100 μM AcKLVFFNH2. The polymerized material was adsorbed to formvar-coated grids and negatively stained with 2% uranyl acetate in water.

labelled KLVFF = molecular target: T2, labelled KLVFF (Homo sapiens, UniProt P05067); assay: Screening of combinatorial D-amino acid pentapeptide libraries with labelled KLVFF; assay type: binding
T2 construct: with labelled KLVFF
Description: (§1) By screening combinatorial pentapeptide libraries exclusively composed of D-amino acids (lowercase) with labelled KLVFF, several ligands with a motif containing phenylalanine (f) in the second and leucine (l) in the third position were identified (e.g. lflrr). By using a short peptide in the screening, known to bind to a region in Aβ critical for its polymerization (i.e. KLVFF), the risk of identifying D-pentapeptides that interact with nonrelevant regions in Aβ (N- or C-terminal to Aβ-16-20) was eliminated. […] Since peptides built up of D-amino acids are resistant to proteolytic degradation, these ligands may be beneficial for inhibition of amyloidogenesis in vivo.

^125I-labelled Aβ-1-40 = molecular target: T3, ^125I-labelled Aβ-1-40 (Homo sapiens, UniProt P05067); assay: SPOT filter-bound peptides incubated with radioactive Aβ-1-40, autoradiography and densitometry; assay type: binding; details: 20 μM ^125I-labelled Aβ-1-40, 20° C., 12 h, TBS pH 7.3; semiquantitative
T3 construct: incubated in the presence of 20 μM ^125I-labelled Aβ-1-40; host or cells: synthetic peptide (chemical synthesis)
Description: a) Ten-mers corresponding to consecutive sequences of Aβ-1-40 were synthesized on a filter matrix using the SPOT-technique (the peptides were synthesized essentially as described by Frank [R. Frank, Tetrahedron 42, 9217-9232 (1992)]. Briefly, a spacer corresponding to 2 molecules of β-alanine was coupled to cellulose membranes (Whatman lChr). The peptides were synthesized on these derivatized membranes using Fmoc protected and pentafluorophenyl-activated amino acids (AMS Biotechnology) dissolved in N-methylpyrrolidone. Coupling efficiency was monitored using bromphenol blue.). We synthesized the thirty-one possible 10-mers of the Aβ-1-40. Peptide no. 1 corresponds to amino acids 1-10, peptide no. 2 to amino acids 2-11 etc. The filter-bound peptides were incubated with radioactive Aβ-1-40. Following washing of the filter in high-salt buffer, bound radioactivity was estimated by autoradiography and densitometry. […] Radioactivity bound to the filter was visualized by autoradiography and quantitated using a densitometer.
b) Peptide no. 11 ([…]) and indicated N- and C-terminal truncated fragments were synthesized using the same technique as described above and analyzed for affinity to ^125I-labelled Aβ-1-40.
d) Each amino acid residue in KLVFF was systematically replaced with A and analyzed for affinity to ^125I-labelled Aβ-1-40. […]

Aβ-1-40 [4] = molecular target: T1, Aβ-1-40; assay: Surface plasmon resonance spectroscopy (BIAcore 2000), Aβ-1-40 over immobilized peptide; assay type: binding; details: chip derivatized with KLVFF-βA-βA-C; three Aβ-1-40 concentrations, pH 7.4
Experimental: c) Sensorgram from BIAcore 2000. Aβ-1-40, at three different concentrations in running buffer, pH 7.4. Aβ-1-40 was injected during 10 minutes over a sensor-chip derivatized with the peptide KLVFF-βA-βA-C.
c) The interaction between soluble Aβ-1-40 and immobilized KLVFF was monitored in real-time (FIG. 2D) using surface plasmon resonance spectroscopy (BIAcore, Pharmacia) (BIAcore 2000 (Pharmacia Biosensor AB, Sweden) was used for real-time studies based on surface plasmon resonance spectroscopy. The peptide was immobilized using thiol coupling. The running buffer consisted of 10 mM HEPES, 0.15 M NaCl, 3.4 mM EDTA and 0.05% surfactant P20 as described. [U. Jansson, M. Malmqvist, Adv. Biosens. 2, 291-336 (1992)]).
d) AA served as linker between the active peptide and the chip (upper trace) and cysteine alone, indicating non-specific binding, (C) as control (lower trace). Arrows indicate start and stop of injection (FIG. 2D).

[5] = WO 95/08999; cited from earlier work
Aβ (Aβ-16-20) = molecular target: T4, Aβ (Aβ-16-20) (Homo sapiens, UniProt P05067); assay: Binding to Aβ (Example 5)
T4 construct: It is a 40 to 42 amino acids long proteolytic fragment of the Alzheimer amyloid precursor protein (APP)
Description: as §1

Aβ = molecular target: T5, Aβ (Homo sapiens, UniProt P05067); assay: Inhibition of amyloid fibril formation (Example 5); assay type: biochemical
T5 construct: It is a 40 to 42 amino acids long proteolytic fragment of the Alzheimer amyloid precursor protein (APP)

In the case of “Aβ-1-28: a well-studied Aβ fragment that readily forms amyloid fibrils [reference compound]”, the “formation of amyloid fibrils” value [1] is listed as “readily forms amyloid fibrils”, the “aggregation (non-aggregated peptide in supernatant)” value [2] is listed as “aggregated” and the “fibril formation (electron microscopy)” value [2] is listed as “formed large fibril bundles”.
For `Nc1c(/N=N/c2ccc(-c3ccc(/N=N/c4cc(S(=O)(=O)O)c5ccccc5c4N)cc3)cc2)cc(S(=O)(=O)O)c2ccccc12` [Congo red], the “inhibition of amyloid fibril formation” value (amyloid fibril formation) is given as “may have such properties”.
For “Aβ-1-28^AAVFA: mutated Aβ-1-28 where the KLVFF sequence was substituted with AAVFA”, the “aggregation (non-aggregated peptide in supernatant)” value [2] was “almost completely failed to aggregate”, the “fibril formation (electron microscopy)” value [2] was “only formed a few dispersed fibrils” and the “fibril formation (electron microscopy)” value ([2]; listed as alanine-substituted Aβ-1-28) was “does not form fibrils”.
For “p3: fragment of Aβ termed p3 and corresponding to Aβ-17-40 or Aβ-17-42 (LVFFAEDVGSNKGAIIGLMVGGVV; P3(40); UniProt P05067 688-711, looked up)”, the “formation of amyloid fibrils” value [1] is listed as “not capable of forming amyloid in vitro or in vivo”.
For AcQKLVFFNH2, the “Aβ-1-40 amyloid fibril formation on coincubation with peptide” value (Aβ-1-40 [3]; 100 μM Aβ-1-40 with equimolar peptide, 48 h, 37° C.) was “this type of fibrils did not form” and the “aggregates formed by the peptide itself” value (Aβ-1-40 [3]; peptide alone, electron microscopy) was “small rod-like aggregates”.
For lflrr, the “identified as ligand of labelled KLVFF” value (labelled KLVFF) was “identified”.
In the case of Lys-Leu-Val-Phe-Phe [KLVFF], the “binding of radioactive Aβ-1-40 to filter-bound peptide” value (^125I-labelled Aβ-1-40) is given as “high Aβ binding capacity”, the “binding of soluble Aβ-1-40 to immobilized peptide (sensorgram)” value (Aβ-1-40 [4]) is given as “not saturable” and the “amnestic or memory enhancing effect” value [5] is given as “neither significantly amnestic nor memory enhancing”. For the same compound, the “binding to Aβ” value (Aβ (Aβ-16-20)) was “binds stereo specifically” and the “inhibition of amyloid fibril formation” value (Aβ) was “inhibit amyloid fibril formation”.
